Laboratory results as given in US20210238282A1 (AMPSOURCE BIOPHARMA SHANGHAI, published 2021).

T1: human TIM-4 (Sino Biological Inc., catalog No. 12161-H08H) (human, UniProt Q96H15 25-315)
T1 construct: Bought protein
T1 sequence (looked up): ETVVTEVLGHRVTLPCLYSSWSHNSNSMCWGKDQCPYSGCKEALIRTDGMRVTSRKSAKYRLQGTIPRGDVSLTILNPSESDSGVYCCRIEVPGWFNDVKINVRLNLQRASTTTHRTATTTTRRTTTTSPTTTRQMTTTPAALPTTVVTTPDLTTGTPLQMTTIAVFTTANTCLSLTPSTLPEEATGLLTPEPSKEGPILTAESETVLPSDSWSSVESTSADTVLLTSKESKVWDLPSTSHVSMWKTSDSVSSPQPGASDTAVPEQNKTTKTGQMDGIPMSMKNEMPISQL

T2: human TIM-1 (Sino Biological Inc., catalog No. 11051-H08H1) (human, UniProt Q96D42 21-290)
T2 construct: Bought protein
T2 sequence (looked up): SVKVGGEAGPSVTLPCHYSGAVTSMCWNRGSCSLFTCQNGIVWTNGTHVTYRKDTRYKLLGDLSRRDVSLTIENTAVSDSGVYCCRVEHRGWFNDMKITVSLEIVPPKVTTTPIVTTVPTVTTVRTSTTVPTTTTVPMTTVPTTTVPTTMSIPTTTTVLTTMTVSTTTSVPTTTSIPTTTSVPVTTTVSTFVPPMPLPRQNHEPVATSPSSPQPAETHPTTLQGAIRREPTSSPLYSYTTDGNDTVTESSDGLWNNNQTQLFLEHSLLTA


What was measured:
[1] = molecular target: TIM-3 (His-tagged, used in the TIM-3/PtdSer competitive ELISA) (UniProt Q8TDQ0 22-200, limits assumed); experiment: competitive ELISA, plate coated with PtdSer (phosphatidylserine, not a protein), His-tagged TIM-3 in solution with antibody, anti-6xHis-HRP
[2] = molecular target: T3, human TIM-3 antigen (His-tagged TIM-3 extracellular domain expressed by Ampsource Biopharma Shanghai Inc.) (human, UniProt Q8TDQ0 22-202); experiment: ELISA, plate coated with His-tagged human TIM-3 extracellular domain
T3 construct: extracellular domain; also called TIM-3-His; not shown: His tag

[3] = molecular target: T4, TIM3-Euk (TIM-3 reagent of the TIM-3/Gal9 binding assay kit) (UniProt Q8TDQ0 22-200, limits assumed, europium cryptate label (Euk), position not stated); experiment: HTRF competition, blocking of TIM-3/Galectin-9 binding (competitor: Tag-Gal9)
T4 construct: Kit reagent

[4] = molecular target: T3, human TIM-3 antigen (His-tagged TIM-3 …); experiment: BLI (ForteBio Octet) as stated; antibody captured by anti-human IgG Fc, antigen in solution, 1:1 model
[5] = molecular target: T5, mouse TIM-3 protein (Sino Biological Inc., catalog No. 51152-M08H) (mouse, UniProt Q8VIM0 20-191); experiment: direct ELISA with HRP-labeled AB12S3, plate coated with mouse TIM-3 at 1 ug/mL
T5 construct: Bought protein; also called murine TIM-3

[6] = molecular target: T3, human TIM-3 antigen (His-tagged TIM-3 …); experiment: direct ELISA with HRP-labeled AB12S3, plate coated with human TIM-3 at 1 ug/mL
[7] = molecular target: T1, human TIM-4 (Sino Biological Inc., …); experiment: ELISA, plate coated with human TIM-4 at 1 ug/mL, detection with HRP-labeled goat anti-human IgG
[8] = molecular target: monkey TIM-3 (Sino Biological Inc., catalog No. 90312-C02H) (monkey); experiment: direct ELISA with HRP-labeled AB12S3, plate coated with monkey TIM-3 at 1 ug/mL
[9] = molecular target: T2, human TIM-1 (Sino Biological Inc., …); experiment: ELISA, plate coated with human TIM-1 at 1 ug/mL, detection with HRP-labeled goat anti-human IgG
[10] = molecular target: T3, human TIM-3 antigen (His-tagged TIM-3 …); experiment: BLI (ForteBio Octet) as stated; antigen in solution, 1:1 model; capture of the murine antibody not described
[11] = molecular target: T3, human TIM-3 antigen (His-tagged TIM-3 …); experiment: ELISA, plate coated with His-tagged human TIM-3 ECD, goat anti-mouse IgG-HRP

Binder | EC50 (read off the curve) [2] | Kd [4] | koff [4] | kon [4] | further results
control antibody AB12S1 (antibody, human IgG1, kappa, N297A, V domains shown, Variable regions derived from anti-TIM-3 antibody ABTIM3 of U.S. Pat. No. 9,605,070; also called positive control antibody AB12S1) VH: QVQLQQPGAELVKPGASVKMSCKASGYTFTSYNMHWIKQTPGQGLEWIGDIYPGNGDTSYNQKFKGKATLTADKSSSTVYMQLSSLTSEDSAVYYCARVGGAFPMDYWGQGTSVTVSS VL: DIVLTQSPASLAVSLGQRATISCRASESVEYYGTSLMQWYQQKPGQPPKLLIYAASNVESGVPARFSGSGSGTDFSLNIHPVEEDDIAIYFCQQSRKDPSTFGGGTKLEIKR | ~0.003 µg/mL |  |  |  | IC50 [1]: 3.2 µg/mL; IC50 [3]: 0.259 µg/mL
humanized anti-TIM-3 antibody AB12S3 (antibody, human IgG4 S228P, kappa, V domains shown, Human IgG4 S228P (EU) heavy chain and human kappa light chain) VH: EVQLVQSGAEVKKPGASVKVSCKASGYTFTNYVMHWMRQAPGQRLEWIGYIDPDNDGIKYNEKIKGKATLTSDKSSSTAYMELSSLRSEDTAVYYCARDFGYVDWFPYWGQGTTVTVSS VL: DIVMTQSPSSLSASVGDRVTITCKASQDVTTAVAWYQQKPGKAPKLLIYSASNRYIGVPDRFTGSGSGTDFTFTISSLQPEDIATYYCQQHYSIPPTFGGGTKVEIKR | ~0.004 µg/mL | 2.71 pM |  |  | binding result [5]: no binding (tested: 10000 ng/mL); IC50 [1]: 1.33 µg/mL; EC50 (read off the curve) [6]: ~0.008 µg/mL; binding result [7]: no binding (tested: 10000 ng/mL); EC50 (read off the curve) [8]: 0.05 µg/mL; binding result [9]: no binding (tested: 10000 ng/mL); IC50 [3]: 0.202 µg/mL
humanized anti-TIM-3 antibody AB12S4 (antibody, human IgG4 S228P, kappa, V domains shown, Human IgG4 S228P (EU) heavy chain and human kappa light chain) VH: EVQLVLSGAEVVKPGASVKMSCKASGYTFTNYVMHWMRQKPGQRLEWIGYIDPDNDGIKYNEKIKGKATLTSDKSSSTAYMELSSLRSEDSAVYYCARDFGYVDWFPYWGQGTTVTVSS VL: DIVMTQSPSSMSTSVGDRVTITCKASQDVTTAVAWYQQKPGKSPKLLIYSASNRYIGVPDRFTGSGSGTDFTFTISSVQPEDIAVYYCQQHYSIPPTFGGGTNLEIKR | ~0.004 µg/mL | < 1 pM | < 1e-07 s⁻¹ | 254000 M⁻¹ s⁻¹ | 
humanized anti-TIM-3 antibody AB12S6 (antibody, V domains shown) VH: QVQLQLSGAEVKKPGASVKVSCKASGYTFTNYVMHWVRQAPGQRLEWMGWIDPDNDGIKYSQKFQGRVTLTSDKSASTAYMELSSLRSEDTAVYYCARDFGYVDWFPYWGQGTLVTVSS VL: DIQMTQSPSSMSASVGDRVTITCQASQDVTTALNWYQQKPGKSPKLLIYSASNLETGVPSRFSGSGSGTDFTFTISSLQPEDIATYYCQQHYSIPPTFGGGTNLEIK |  | 4.38 pM | 8.68e-07 s⁻¹ | 198000 M⁻¹ s⁻¹ | 
humanized anti-TIM-3 antibody AB12S5 (antibody, V domains shown, it was captured through anti-human IgG Fc) VH: QVQLVQSGAEVKKPGASVKVSCKASGYTFTNYVMHWVRQAPGQRLEWMGWIDPDNDGIKYSQKFQGRVTITRDTSASTAYMELSSLRSEDTAVYYCARDFGYVDWFPYWGQGTTVTVSS VL: DIQMTQSPSSLSASVGDRVTITCQASQDVTTALNWYQQKPGKAPKLLIYSASNLETGVPSRFSGSGSGTDFTFTISSLQPEDIATYYCQQHYSIPPTFGGGTKVEIK |  | 4.82 pM | 6.32e-07 s⁻¹ | 131000 M⁻¹ s⁻¹ | 
humanized anti-TIM-3 antibody AB12S7 (antibody, V domains shown) VH: EVQLQLSGAEVKKPGASVKVSCKASGYTFTNYVMHWMRQKPGQRLEWMGWIDPDNDGIKYSQKFQGRVTITRDKSSSTAYMELSSLRSEDTAVYYCARDFGYVDWFPYWGQGTLVTVSS VL: DIVMTQSPSSLSASVGDRVTITCQASQDVTTALNWYQQKSGQSPKLLIYSASNLETGVPSRFSGSGSGTDFTFTISSLQPEDIATYYCQQHYSIPPTFGGGTNLEIK |  | 3.44 pM | 7.66e-07 s⁻¹ | 223000 M⁻¹ s⁻¹ | 
murine monoclonal antibody Mab22 (antibody, mouse IgG1, V domains shown, subtype identified as murine IgG1 (Kappa); purified from hybridoma supernatant on protein G; also called antibody secreted by hybridoma clone #22; murine antibody Mab22) VH: EVQLQLSGPELVKPGASVKMSCKASGYTFTNYVMHWMRQKPGQGLEWIGYIDPDNDGIKYNEKIKGKATLTSDKSSSTAYMELSSLTSEDSAVYYCARDFGYVDWFPYWGQGTLVTVSA VL: DIVMTQSHKFMSTSVGNRVSITCKASQDVTTAVAWYQQKSGQSPKLLIYSASNRYIGVPDRFTGSGSGTDFTFTISSVQTEDLAVYYCQQHYSIPPTFGGGTNLEIK |  |  |  |  | Kd [10]: < 1 pM; koff [10]: < 1e-07 s⁻¹; kon [10]: 345000 M⁻¹ s⁻¹; EC50 [11]: 0.0063 µg/mL
